{"source": "patent US20120117670A1", "about": "(U3 PHARMA, published 2012)", "binders": {"B1": {"name": "h#11D5-T6 (antibody, human IgG1, kappa)", "heavy": "not shown", "light": "DIQMTQSPSSLSASVGDRVTITCRASQDIGNYLSWFQQKPGKAPRRMIYGAIKLAVGVPSRFSGSGSGTDYTLTISSLQPEDFATYYCLQYIQFPLTFGQGTKVEIKRTVAAPSVFIFPPSDEQLKSGTASVVCLLNNFYPREAKVQWKVDNALQSGNSQESVTEQDSKDSTYSLSSTLTLSKADYEKHKVYACEVTHQGLSSPVTKSFNRGEC", "notes": "Humanized IgG1/kappa"}, "B2": {"name": "chimeric anti-AXL antibody ch11B7-IgG1 (antibody, V domains shown)", "VH": "EVQLQESGPGLVKPSQSLSLTCSVTGYSITSNYWGWIRKFPGDKMEWMGYITYSGSTSYNPSLKSRISITRDTSKNQFFLQLNSVTSEDTATYYCAITTFYYWGQGVMVTVSS", "VL": "DIQMTQAPSSLPASLGDRVTITCRASQDIGNYLRWFQQKPGKSPRLMISGATNLAAGVPSRFSGSRSGSDYSLTISSLESEDMADYYCLQSKESPWTFGGGTKLELKR", "notes": "Rat/human chimera, human IgG1/kappa; also called chm11B7; chimeric anti-AXL mAb #11B7"}, "B3": {"name": "rat anti-human AXL monoclonal antibody #11B7 (antibody, rat IgG1, V domains shown)", "VH": "B2 VH", "VL": "B2 VL", "notes": "Rat IgG1/kappa from hybridoma; also called I11B7; rat anti-AXL antibody 11B7"}, "B4": {"name": "h#11D5-T3 (antibody, human IgG1, kappa, V domains shown)", "VH": "EVQLQESGPGLVKPSQTLSLTCTVSGYSITSNYWGWIRKFPGNKMEWIGHITNSGNTTYNPSLKSRISISRDTSKNQFSLKLSSVTPADTAVYYCAKGAFDYWGQGTLVTVSS", "VL": "DIQMTQSPSSLSASVGDRVTITCRASQDIGNYLSWFQQKVGKSPRRMIYGAIKLAVGVPSRFSGSRSGSDYTLTISSLQPEDFAIYYCLQYIQFPLTFGSGTKLEIKR", "notes": "Humanized IgG1/kappa"}, "B5": {"name": "chimeric anti-AXL antibody ch11D5-IgG1 (antibody, V domains shown)", "VH": "EVQLQESGPGLVKPSQSLSLTCSVTGYSITSNYWGWIRKFPGNKMEWIGHITNSGNTTYNPSLKSRISISRDTSRNQFFLQLNSVTTEDTATYYCAKGAFDYWGQGVMVTVSS", "VL": "B4 VL with L11M, A13T, V15L, T72S, Q79E, P80S, F83M, I106L", "notes": "Rat/human chimera, human IgG1/kappa; also called chm11D5; human chimeric antibody"}, "B6": {"name": "rat anti-human AXL monoclonal antibody #11D5 (antibody, rat IgG2a, V domains shown)", "VH": "B5 VH", "VL": "B4 VL with L11M, A13T, V15L, T72S, Q79E, P80S, F83M, I106L", "notes": "Rat IgG2a/kappa from hybridoma; also called III11D5"}, "B7": {"name": "h#11B7-T3 (antibody, human IgG1, kappa, V domains shown)", "VH": "QVQLQESGPGLVKPSQTLSLTCAVSGYSITSNYWGWIRKPPGDGLEWMGYITYSGSTSYNPSLKSRISITRDTSKNQFSLKLSSVTAADTAVYYCAITTFYYWGQGTLVTVSS", "VL": "DIQMTQSPSSLSASVGDRVTITCRASQDIGNYLRWFQQKPGKAPKLMISGATNLAAGVPSRFSGSRSGSDYTLTISSLQPEDFATYYCLQSKESPWTFGGGTKVEIKR", "notes": "Humanized IgG1/kappa"}, "B8": {"name": "h#11B7-T2 (antibody, human IgG1, kappa, V domains shown)", "VH": "B7 VH with V2I, K39Q, D43K, T70S, R71V", "VL": "B7 VL with S65T, R66G, S69T, L73F", "notes": "Humanized IgG1/kappa"}, "B9": {"name": "h#11B7-T30 (antibody, human IgG1, kappa)", "heavy": "not shown", "light": "DIQMTQSPSSLSASVGDRVTITCRASQDIGNYLRWFQQKPGKAPKLLISGATNLAAGVPSRFSGSGSGSDYTLTISSLQPEDFATYYCLQSKESPWTFGQGTKLEIKRTVAAPSVFIFPPSDEQLKSGTASVVCLLNNFYPREAKVQWKVDNALQSGNSQESVTEQDSKDSTYSLSSTLTLSKADYEKHKVYACEVTHQGLSSPVTKSFNRGEC", "notes": "Humanized IgG1/kappa"}, "B10": {"name": "h#11B7-T6 (antibody, human IgG1, kappa)", "heavy": "not shown", "light": "B9 light with L47M, L104V", "notes": "Humanized IgG1/kappa"}, "B11": {"name": "h#11B7-T28 (antibody, human IgG1, kappa)", "heavy": "not shown", "light": "B9 light", "notes": "Humanized IgG1/kappa"}, "B12": {"name": "h#11B7-T29 (antibody, human IgG1, kappa)", "heavy": "not shown", "light": "B9 light with Y71F", "notes": "Humanized IgG1/kappa"}, "B13": {"name": "h#11B7-T4 (antibody, human IgG1, kappa)", "heavy": "not shown", "light": "B9 light with F36Y, Y71F", "notes": "Humanized IgG1/kappa"}, "B14": {"name": "h#11B7-T31 (antibody, human IgG1, kappa)", "heavy": "not shown", "light": "B9 light with Y71F", "notes": "Humanized IgG1/kappa"}, "B15": {"name": "h#11B7-T5 (antibody, human IgG1, kappa)", "heavy": "not shown", "light": "B9 light with L47M", "notes": "Humanized IgG1/kappa"}}, "key": {"[1]": {"target": "T1, Human AXL-Fc (R&D Systems, #154-AL) (human, UniProt P30530 26-451)", "T1 construct": "Bought reagent; also called human AXL-Fc fusion protein; human AXL-Fc protein; not shown: Fc part of the bought fusion protein", "T1 sequence": "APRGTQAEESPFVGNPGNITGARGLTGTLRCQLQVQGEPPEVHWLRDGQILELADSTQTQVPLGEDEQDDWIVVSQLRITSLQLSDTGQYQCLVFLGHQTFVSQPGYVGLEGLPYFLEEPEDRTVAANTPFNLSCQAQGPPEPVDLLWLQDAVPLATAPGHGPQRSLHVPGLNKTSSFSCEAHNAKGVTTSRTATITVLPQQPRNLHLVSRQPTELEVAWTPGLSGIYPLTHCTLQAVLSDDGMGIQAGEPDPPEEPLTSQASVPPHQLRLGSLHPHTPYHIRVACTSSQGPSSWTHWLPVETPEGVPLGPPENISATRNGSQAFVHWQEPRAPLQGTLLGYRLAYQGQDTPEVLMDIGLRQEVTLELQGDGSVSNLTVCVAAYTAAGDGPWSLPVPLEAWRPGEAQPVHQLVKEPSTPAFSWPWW", "assay": "ELISA on plate-adsorbed human AXL-Fc (1 ug/ml), 5-fold antibody dilution series, AP-conjugated goat anti-human IgG, fluorescent substrate (Example 14)"}, "[2]": {"target": "T1, Human AXL-Fc (R&D Systems, #154-AL)", "assay": "ELISA on plate-adsorbed human AXL-Fc (1 ug/ml), 5-fold antibody dilution series, AP-conjugated goat anti-human IgG, fluorescent substrate (Example 13)"}, "[3]": {"target": "T2, human receptor tyrosine kinase AXL (human, UniProt P30530 26-894)", "T2 construct": "also called hAXL; human AXL on NIH3T3-AXL cI.7, RatI-AXL cI.2 and human cancer cell lines", "T2 sequence": "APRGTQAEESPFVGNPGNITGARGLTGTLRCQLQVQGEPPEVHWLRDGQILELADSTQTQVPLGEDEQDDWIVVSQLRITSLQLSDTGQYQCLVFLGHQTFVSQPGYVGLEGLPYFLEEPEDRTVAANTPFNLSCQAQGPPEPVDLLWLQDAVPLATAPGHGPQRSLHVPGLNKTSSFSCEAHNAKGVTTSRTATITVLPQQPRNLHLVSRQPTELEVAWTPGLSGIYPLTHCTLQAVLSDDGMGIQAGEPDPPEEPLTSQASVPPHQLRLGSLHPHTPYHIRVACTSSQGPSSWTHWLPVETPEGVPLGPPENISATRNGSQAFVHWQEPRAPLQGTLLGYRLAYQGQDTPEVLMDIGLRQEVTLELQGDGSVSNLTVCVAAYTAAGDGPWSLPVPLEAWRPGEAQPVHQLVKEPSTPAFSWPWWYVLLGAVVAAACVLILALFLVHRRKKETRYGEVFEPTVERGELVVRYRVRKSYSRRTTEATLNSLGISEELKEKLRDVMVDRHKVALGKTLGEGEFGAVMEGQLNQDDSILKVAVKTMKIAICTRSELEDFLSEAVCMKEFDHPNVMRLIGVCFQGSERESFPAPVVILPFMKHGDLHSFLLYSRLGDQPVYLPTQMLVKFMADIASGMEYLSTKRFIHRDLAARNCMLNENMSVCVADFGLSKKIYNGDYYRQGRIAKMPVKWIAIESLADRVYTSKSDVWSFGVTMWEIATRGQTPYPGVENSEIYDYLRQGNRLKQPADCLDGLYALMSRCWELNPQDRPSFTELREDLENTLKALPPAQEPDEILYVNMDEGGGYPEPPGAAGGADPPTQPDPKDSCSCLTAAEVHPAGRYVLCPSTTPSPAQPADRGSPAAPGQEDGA", "assay": "FACS Scatchard on human AXL overexpressing NIH3T3 cells; apparent KD (KDapp)", "procedure": "Human AXL overexpression NIH3T3 cells were harvested by incubation with 10 mM EDTA in PBS and resuspended at 6 million cells per ml in FACS buffer (PBS pH 7.4, 3% FCS, 0.1% NaN3). In a round-bottom microtiter plate, 100 μl of cell suspension were added to 100 μl of antibody solution containing antibodies 11B7, 11D5, ch11B7-IgG1, ch11B7-IgG2, ch11D5-IgG1 or ch11D5-IgG2 at concentrations between 40 and 0.002 μg/ml (266 and 0.01 nM) in FACS buffer. Antibody binding was allowed to proceed for 2 hours on ice. Then, cells were washed twice with 250 μl FACS buffer per well, and resuspended in 200 μl of secondary antibody (anti-rat-PE; Jackson) diluted 1:50 in FACS buffer. After 45 minutes of incubation, cells were again washed twice in FACS buffer and resuspended in […] PBS for FACS analysis. Analysis was carried out on a Beckman-Coulter FACS FC500. To determine the apparent affinity constant KDapp, mean fluorescence values were plotted against the ratio of mean fluorescence and the corresponding antibody concentration ([M]). The calculated KDapp resulted from the inverse slope of the straight line are listed below: […]"}, "[4]": {"target": "T3, NHis-hAXL26-131 (human AXL single IG domain) (human, UniProt P30530 33-138)", "T3 construct": "Made in E. coli; tag kept", "assay": "ELISA on plate-adsorbed human AXL IG-domain fragment (1 ug/ml), antibody at 0.04 ug/ml, fluorescent substrate (Example 16)", "procedure": "Then, each solution was dispensed in the amount of […] to an Immuno Plate (manufactured by Nalge Nunc International K.K., #437111) and left standing overnight at 4° C. to adsorb the peptide onto the plate. On the next day, the wells were washed 5 times with a PBS-T solution (PBS and 0.05% (v/v) Tween 20). Then, a solution containing skim milk (manufactured by Morinaga Milk Industry Co., Ltd.) diluted with PBS to 5% was dispensed in an amount of 100 μl/well and left standing at room temperature for 2 hours. The solutions in the wells were removed, and the wells were washed 5 times with a PBS-T solution. The rat anti-human AXL monoclonal antibody #11B7 was diluted to 0.04 μg/ml with a PBS solution containing 0.5% skim milk. Then, the solution was dispensed in amount of 100 μl/well and left standing at room temperature for 2 hours. The wells were washed 5 times with a PBS-T solution. […] Then, a fluorescent substrate solution (manufactured by Roche Diagnostics K.K., #11681982001) was added in the amount of 100 μl/well to perform fluorescence reaction. The fluorescence intensity on the human AXL-IG domain-adsorbed plate was measured 15 minutes after the addition of the fluorescent substrate solution using a SpectraMax M5 (manufactured by Molecular Devices Corp.). […]"}, "[5]": {"target": "T1, Human AXL-Fc (R&D Systems, #154-AL)", "assay": "ELISA on plate-adsorbed human AXL-Fc (1 ug/ml), 5-fold antibody dilution series, AP-conjugated goat anti-human IgG, fluorescent substrate (Example 23)"}}, "note": "Changes are numbered by the printed parent chain."}
{"binder": "B1", "values": [{"measurement": "EC50 (read off the curve)", "setting": "[1]", "result": "~0.01", "unit": "µg/mL"}]}
{"binder": "B2", "values": [{"measurement": "EC50 (read off the curve)", "setting": "[2]", "result": "~0.02", "unit": "µg/mL"}, {"measurement": "Kd", "setting": "[3]", "result": 0.6, "unit": "nM"}]}
{"binder": "B3", "values": [{"measurement": "Kd", "setting": "[3]", "result": 0.38, "unit": "nM"}, {"measurement": "binding result", "setting": "[4]", "result": "no binding (tested: 0.04 ug/ml)"}]}
{"binder": "B4", "values": [{"measurement": "EC50 (read off the curve)", "setting": "[1]", "result": "~0.02", "unit": "µg/mL"}]}
{"binder": "B5", "values": [{"measurement": "Kd", "setting": "[3]", "result": 0.4, "unit": "nM"}, {"measurement": "EC50 (read off the curve)", "setting": "[1]", "result": "~0.01", "unit": "µg/mL"}]}
{"binder": "B6", "values": [{"measurement": "Kd", "setting": "[3]", "result": 0.81, "unit": "nM"}]}
{"binder": "B7", "values": [{"measurement": "EC50 (read off the curve)", "setting": "[2]", "result": "~0.02", "unit": "µg/mL"}]}
{"binder": "B8", "values": [{"measurement": "EC50 (read off the curve)", "setting": "[2]", "result": "~0.03", "unit": "µg/mL"}]}
{"binder": "B9", "values": [{"measurement": "EC50 (read off the curve)", "setting": "[5]", "result": "~0.04", "unit": "µg/mL"}]}
{"binder": "B10", "values": [{"measurement": "EC50 (read off the curve)", "setting": "[2]", "result": "~0.02", "unit": "µg/mL"}]}
{"binder": "B11", "values": [{"measurement": "EC50 (read off the curve)", "setting": "[5]", "result": "~0.04", "unit": "µg/mL"}]}
{"binder": "B12", "values": [{"measurement": "EC50 (read off the curve)", "setting": "[5]", "result": "~0.04", "unit": "µg/mL"}]}
{"binder": "B13", "values": [{"measurement": "EC50 (read off the curve)", "setting": "[2]", "result": "~0.06", "unit": "µg/mL"}]}
{"binder": "B14", "values": [{"measurement": "EC50 (read off the curve)", "setting": "[5]", "result": "~0.04", "unit": "µg/mL"}]}
{"binder": "B15", "values": [{"measurement": "EC50 (read off the curve)", "setting": "[2]", "result": "~0.02", "unit": "µg/mL"}]}
